In the supplement of paper PMC9112550, “Optimization of the antimicrobial peptide Bac7 by deep mutational scanning” (BMC Biology, 2022):

Tested on: Escherichia coli TOP10
Assay: shrunken log2 fold change of peptide-encoding DNA abundance (4.5 h post-induction vs induction); higher = less antimicrobial activity (less host growth inhibition)
Details: time post-induction: 4.5 h; library: site-saturation at positions 5, 18, 19, 20
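Also: peptides expressed intracellularly from a pBAD plasmid library in pooled LB shake-flask culture, induced with 0.3% L-arabinose, DNA abundance read by NGS, three biological replicates, DESeq2 with apeglm shrinkage.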

| Sequence | shrunken log2 fold change |
| --- | --- |
| RRIRPRPPRLPRPRPRPHWTPRP | -0.119 |
| RRIRPRPPRLPRPRPRPHWYPRP | -0.165 |
| RRIRPRPPRLPRPRPRPHYAPRP | -0.15 |
| RRIRPRPPRLPRPRPRPHYIPRP | -0.586 |
| RRIRPRPPRLPRPRPRPICCPRP | -0.139 |
| RRIRPRPPRLPRPRPRPICPPRP | -0.17 |
| RRIRPRPPRLPRPRPRPICTPRP | 0.0424 |
| RRIRPRPPRLPRPRPRPICYPRP | -0.407 |
| RRIRPRPPRLPRPRPRPIEIPRP | -0.0794 |
| RRIRPRPPRLPRPRPRPIEPPRP | 0.109 |
| RRIRPRPPRLPRPRPRPIESPRP | -0.252 |
| RRIRPRPPRLPRPRPRPIFAPRP | 0.33 |
| RRIRPRPPRLPRPRPRPIFFPRP | 0.211 |
| RRIRPRPPRLPRPRPRPIGEPRP | -0.0647 |
| RRIRPRPPRLPRPRPRPIHDPRP | -0.0217 |
| RRIRPRPPRLPRPRPRPILKPRP | -0.14 |
| RRIRPRPPRLPRPRPRPILRPRP | -0.0705 |
| RRIRPRPPRLPRPRPRPILVPRP | -0.178 |
| RRIRPRPPRLPRPRPRPINYPRP | -0.402 |
| RRIRPRPPRLPRPRPRPIPDPRP | 0.0469 |
| RRIRPRPPRLPRPRPRPIPYPRP | -0.384 |
| RRIRPRPPRLPRPRPRPIQQPRP | 0.000308 |
| RRIRPRPPRLPRPRPRPIRFPRP | -0.119 |
| RRIRPRPPRLPRPRPRPIRHPRP | -0.146 |
| RRIRPRPPRLPRPRPRPIRMPRP | -0.039 |

| Sequence | shrunken log2 fold change |
| --- | --- |
| RRIRPRPPRLPRPRPRPISTPRP | -0.324 |
| RRIRPRPPRLPRPRPRPITPPRP | 0.0216 |
| RRIRPRPPRLPRPRPRPIVDPRP | 0.0804 |
| RRIRPRPPRLPRPRPRPIWCPRP | 0.0267 |
| RRIRPRPPRLPRPRPRPIWHPRP | -0.0776 |
| RRIRPRPPRLPRPRPRPIWQPRP | 0.0572 |
| RRIRPRPPRLPRPRPRPKAKPRP | 0.131 |
| RRIRPRPPRLPRPRPRPKDCPRP | 0.107 |
| RRIRPRPPRLPRPRPRPKEHPRP | -0.202 |
| RRIRPRPPRLPRPRPRPKEMPRP | -0.106 |
| RRIRPRPPRLPRPRPRPKFEPRP | 0.319 |
| RRIRPRPPRLPRPRPRPKHGPRP | 0.127 |
| RRIRPRPPRLPRPRPRPKIQPRP | 0.0394 |
| RRIRPRPPRLPRPRPRPKIVPRP | 0.026 |
| RRIRPRPPRLPRPRPRPKKIPRP | 0.0064 |
| RRIRPRPPRLPRPRPRPKKRPRP | 0.136 |
| RRIRPRPPRLPRPRPRPKLAPRP | 0.405 |
| RRIRPRPPRLPRPRPRPKLRPRP | 0.204 |
| RRIRPRPPRLPRPRPRPKMEPRP | -0.0537 |
| RRIRPRPPRLPRPRPRPKMQPRP | 0.132 |
| RRIRPRPPRLPRPRPRPKMYPRP | -0.938 |
| RRIRPRPPRLPRPRPRPKNNPRP | -0.475 |
| RRIRPRPPRLPRPRPRPKNQPRP | -0.108 |
| RRIRPRPPRLPRPRPRPKQCPRP | 0.147 |
| RRIRPRPPRLPRPRPRPKQFPRP | -0.313 |

| Sequence | shrunken log2 fold change |
| --- | --- |
| RRIRPRPPRLPRPRPRPKQMPRP | 0.268 |
| RRIRPRPPRLPRPRPRPKSLPRP | -0.015 |
| RRIRPRPPRLPRPRPRPKSPPRP | -0.12 |
| RRIRPRPPRLPRPRPRPKSTPRP | -0.244 |
| RRIRPRPPRLPRPRPRPKTDPRP | -0.0446 |
| RRIRPRPPRLPRPRPRPKVMPRP | 0.294 |
| RRIRPRPPRLPRPRPRPKVRPRP | 0.161 |
| RRIRPRPPRLPRPRPRPKWFPRP | 0.0432 |
| RRIRPRPPRLPRPRPRPKYRPRP | 2.73 |
| RRIRPRPPRLPRPRPRPKYYPRP | -0.783 |
| RRIRPRPPRLPRPRPRPLCIPRP | -0.403 |
| RRIRPRPPRLPRPRPRPLCLPRP | -0.294 |
| RRIRPRPPRLPRPRPRPLCWPRP | 0.266 |
| RRIRPRPPRLPRPRPRPLEDPRP | 0.492 |
| RRIRPRPPRLPRPRPRPLFEPRP | 0.163 |
| RRIRPRPPRLPRPRPRPLGLPRP | -0.124 |
| RRIRPRPPRLPRPRPRPLIGPRP | 0.009 |
| RRIRPRPPRLPRPRPRPLIQPRP | -0.0119 |
| RRIRPRPPRLPRPRPRPLIVPRP | -0.406 |
| RRIRPRPPRLPRPRPRPLIYPRP | -0.457 |
| RRIRPRPPRLPRPRPRPLKDPRP | -0.115 |
| RRIRPRPPRLPRPRPRPLLAPRP | 1.42 |
| RRIRPRPPRLPRPRPRPLLQPRP | 0.16 |
| RRIRPRPPRLPRPRPRPLNPPRP | -0.131 |
| RRIRPRPPRLPRPRPRPLPLPRP | -0.128 |

| Sequence | shrunken log2 fold change |
| --- | --- |
| RRIRPRPPRLPRPRPRPLRFPRP | 0.431 |
| RRIRPRPPRLPRPRPRPLRGPRP | 0.792 |
| RRIRPRPPRLPRPRPRPLRVPRP | 0.615 |
| RRIRPRPPRLPRPRPRPLSVPRP | -0.121 |
| RRIRPRPPRLPRPRPRPLTSPRP | -0.125 |
| RRIRPRPPRLPRPRPRPLVEPRP | 0.846 |
| RRIRPRPPRLPRPRPRPLWSPRP | -0.0489 |
| RRIRPRPPRLPRPRPRPMACPRP | -0.161 |
| RRIRPRPPRLPRPRPRPMAGPRP | -0.13 |
| RRIRPRPPRLPRPRPRPMAYPRP | -0.126 |
| RRIRPRPPRLPRPRPRPMCFPRP | -0.405 |
| RRIRPRPPRLPRPRPRPMDTPRP | -0.276 |
| RRIRPRPPRLPRPRPRPMENPRP | 0.127 |
| RRIRPRPPRLPRPRPRPMFDPRP | -0.231 |
| RRIRPRPPRLPRPRPRPMFQPRP | -0.241 |
| RRIRPRPPRLPRPRPRPMHKPRP | 0.0775 |
| RRIRPRPPRLPRPRPRPMIFPRP | -0.214 |
| RRIRPRPPRLPRPRPRPMKDPRP | -0.313 |
| RRIRPRPPRLPRPRPRPMKQPRP | 0.036 |
| RRIRPRPPRLPRPRPRPMNMPRP | -0.668 |
| RRIRPRPPRLPRPRPRPMNTPRP | -0.0416 |
| RRIRPRPPRLPRPRPRPMPTPRP | 0.22 |
| RRIRPRPPRLPRPRPRPMRKPRP | 0.365 |
| RRIRPRPPRLPRPRPRPMRSPRP | 0.478 |
| RRIRPRPPRLPRPRPRPMSQPRP | 0.0517 |

| Sequence | shrunken log2 fold change |
| --- | --- |
| RRIRPRPPRLPRPRPRPMTCPRP | -0.251 |
| RRIRPRPPRLPRPRPRPMTPPRP | 0.165 |
| RRIRPRPPRLPRPRPRPMVLPRP | 0.0636 |
| RRIRPRPPRLPRPRPRPMWPPRP | 0.213 |
| RRIRPRPPRLPRPRPRPMWYPRP | -0.111 |
| RRIRPRPPRLPRPRPRPMYKPRP | -0.323 |
| RRIRPRPPRLPRPRPRPNAAPRP | 0.237 |
| RRIRPRPPRLPRPRPRPNADPRP | 0.0878 |
| RRIRPRPPRLPRPRPRPNAGPRP | 0.0847 |
| RRIRPRPPRLPRPRPRPNANPRP | 0.0132 |
| RRIRPRPPRLPRPRPRPNCYPRP | -0.344 |
| RRIRPRPPRLPRPRPRPNGIPRP | -0.153 |
| RRIRPRPPRLPRPRPRPNHDPRP | -0.384 |
| RRIRPRPPRLPRPRPRPNHEPRP | -0.419 |
| RRIRPRPPRLPRPRPRPNHGPRP | -0.0975 |
| RRIRPRPPRLPRPRPRPNIGPRP | 0.0125 |
| RRIRPRPPRLPRPRPRPNIHPRP | -0.579 |
| RRIRPRPPRLPRPRPRPNILPRP | -0.305 |
| RRIRPRPPRLPRPRPRPNISPRP | -0.208 |
| RRIRPRPPRLPRPRPRPNKQPRP | 0.0754 |
| RRIRPRPPRLPRPRPRPNNCPRP | -0.0794 |
| RRIRPRPPRLPRPRPRPNPYPRP | -0.465 |
| RRIRPRPPRLPRPRPRPNQDPRP | -0.167 |
| RRIRPRPPRLPRPRPRPNTMPRP | -0.492 |
| RRIRPRPPRLPRPRPRPNTSPRP | -0.237 |

| Sequence | shrunken log2 fold change |
| --- | --- |
| RRIRPRPPRLPRPRPRPNVRPRP | -0.163 |
| RRIRPRPPRLPRPRPRPNVVPRP | -0.0229 |
| RRIRPRPPRLPRPRPRPNWEPRP | 0.0541 |
| RRIRPRPPRLPRPRPRPNWYPRP | -0.338 |
| RRIRPRPPRLPRPRPRPNYIPRP | -0.739 |
| RRIRPRPPRLPRPRPRPNYPPRP | -0.392 |
| RRIRPRPPRLPRPRPRPNYQPRP | -0.293 |
| RRIRPRPPRLPRPRPRPPCIPRP | 0.00615 |
| RRIRPRPPRLPRPRPRPPCLPRP | -0.153 |
| RRIRPRPPRLPRPRPRPPDSPRP | 0.326 |
| RRIRPRPPRLPRPRPRPPEPPRP | 0.787 |
| RRIRPRPPRLPRPRPRPPFMPRP | 0.315 |
| RRIRPRPPRLPRPRPRPPFRPRP | 0.529 |
| RRIRPRPPRLPRPRPRPPGYPRP | 0.116 |
| RRIRPRPPRLPRPRPRPPHDPRP | 0.572 |
| RRIRPRPPRLPRPRPRPPHIPRP | 0.806 |
| RRIRPRPPRLPRPRPRPPHVPRP | 0.782 |
| RRIRPRPPRLPRPRPRPPKNPRP | 0.26 |
| RRIRPRPPRLPRPRPRPPLKPRP | 0.441 |
| RRIRPRPPRLPRPRPRPPMAPRP | 0.338 |
| RRIRPRPPRLPRPRPRPPMWPRP | 0.412 |
| RRIRPRPPRLPRPRPRPPNAPRP | 0.435 |
| RRIRPRPPRLPRPRPRPPNKPRP | 0.139 |
| RRIRPRPPRLPRPRPRPPNRPRP | 0.29 |
| RRIRPRPPRLPRPRPRPPPEPRP | 0.492 |
